The nature of the data set: label from the status in PepcDB records.

For the sequence “MATAENTELIDRFEEFYRNYYRNEIGELAQKYPNDQKSLYIDWDDLYRFDPDLADDYRTKPEQIQEYAEEALRLYDLPVDVSLGQAHVRVRNLPESEDIRDLRHEHHGNLVAVRGIIRKATDVRPKVIEAAFECQRCGTLTRIPQTAGDFQEPHDCQGCERQGPFRLNTDQSQFIDAQKLRVQESPEGLRGGETPQSIDINIEDDITGHVTAGDHVRVTGILKLDQRGNDNEKSPMFDIYMEGVSVEIEDEQFEDMEITDADKTEIVELSSEPDIYDKMVGAIAPSIYGYEKEKLAMMLQLFSGVTKELPDGSRIRGDLHMLLIGDPGTGKCVHGDTRVTLADGHERPIREVVESNLDDPKPVDDGVWDTVDFDVPSLQSDGTVATQNATKVWKRKAPETLYRIRTATGRELDVTPSHPLFVQSDGRFQARKAEELESGTHVAVPRKVSTNACNELDVTFRQSQAHNRIDLDLPPQWTPELARLIGYIVAEGYVEQRPDNTGYVSITNNDREVLDDAKSVLETLNLNVTERSSHEGKTARELLCSAGEFVSFLASLDETLLQSSAERRVPQDIMRASDNVVTGFIRGYIEGEGHVSTSQREITVASMSKPLLEDVRTLLVTQGITAQLQPRNNGSYRLRISGQSFHDYAEQIGFITARKTEACRQFEGTHGNTNLDIVPNLGPELRRIREALGLTQSECGLPRSTYQHYERGRRNPSRDSLESVLDAFETRLAEMNNDTPISDTARSDGGGTGSLRQDLNGLAALVEGDIAWDRIESIEPIEHDEKWVYDLEIEGTHNYLTNGVVSHNSQMLSYIENIAPRSVYTSGKGSSSAGLTAAAVRDDFGDGQQWTLEAGALVLADQGIAAIDELDKMSPEDRSAMHEALEQQRISVSKAGINATLKSRCSLLGAANPKYGRFDQYEPIGEQIDLEPALISRFDLIFTVTDKPDEEKDRNLAEHIIQTNYAGELHTHRTENPTSNFSEEEVGTVTEEVAPTIEPDLLRKYVAYAKRNCFPTMTEEAKSRIEDFYVDLRLKGQDEDAPVPVTARKLEALVRLAEASARIRLSDTVDEADADRAVDIAHYCLKEIGVDPETGEFDADVVETGQSKTQRDRIQNIKGIISDIEDEYDEGAPADVVIERAEEVGIDESKAEHEIDKLKQKGEVYEPRTDHLRTT”, the protein production result is on record as “failed”.

Regarding “MATEISTRGRQRAIGHEEYSLYSSLSEEELLQMAIEQSLADKTRGPTPAEASASSQTNHQPGHFHPWTRSPSSPENPPARAPLGLFQGVMQKYSSNLFKTSQMAAMDPVLKAIKEGDEEALKIMIQDGKNLAEPNKEGWLPLHEAAYYGQLGCLKVLQQAYPGTIDQRTLQEETALYLATCREHLDCLLSLLQAGAEPDISNKSRETPLYKACERKNAEAVRILVRYNADANHRCNRGWTALHESVSRNDLEVMEILVSGGAKVEAKNVYSITPLFVAAQSGQLEALRFLAKHGADINTQASDSASALYEASKNEHEDVVEFLLSQGADANKANKDGLLPLHVASKKGNYRIVQMLLPVTSRTRVRRSGISPLHLAAERNHDAVLEALLAARFDVNAPLAPERARLYEDRRSSALYFAVVNNNVYATELLLLAGADPNRDVISPLLVAIRHGCLRTMQLLLDHGANIDAYIATHPTAFPATIMFAMKCLSLLKFLMDLGCDGEPCFSCLYGNGPHPPAPRPGRFHDAPVDDKAPSVVQFCEFLSAPEVSRWAGPIIDVLLDYVGNVQLCSRLKEHIDSFEDWAVIKEKAEPPRPLAHLCRLRVRKAIGKYRIKLLDTLPLPGRLIRYLKYENTQ”, the protein production entry was “failed”.

As for “MATFFSLALYAGSFTFILREGGIPFYYLGVFFAIAVILYLIFNSLSREYVGRAGDAIIVPVSILMVAVAFVLVYISQSIPIISVSVALFTVSLIMFYNSTVRNEVSISTNERIFMGGAGLGGFIGLIVAGVFPGKMSVLDSYMAIIMLAVGLAAVFVFFRRPTGRFSIADAFHVFVRPFNSMEKIRTIEKKLLLLAVSLDEIFVWIAIGASFPFVISAGLGSGMSRPAVMFSVAAAIIIGAALVYVFESSNIPATPFFYPVKDLILVAGLLLLSFMYPASYVAGMIFLALLPVAFIGSVRFLKSQFPSSFDFRQITSFFRNPIMVIAPLMGSILWAVSGAMLFLTAMAFAIFALVIGIIVITNPKIFKVSDPYETANN”, the protein production entry is given as “failed”.

In the case of “MATITRTDRLILVPLTVELEDEAHQIYSDSRIWEHRPQARHTNVRVTRDIIKRTNESWGKKDLGPWGVYLRDRPSEFVGVGGVELIDGKVWDLKYRLRPDLWGNGYATEISNAATLATKRIDDSLPLTARVTTNHPASFRILEKLGLTPVWEGRRVGTEDDPNEPDVRIYSDRPLSDEILEMLKQRP”, the protein production result was “failed”.

“MATKSSDSSHKQSPPSFRKSVEIKATHDQFFVWREFLWGGIAGAFGEGMMHPVDTLKTRLQSQIIMNATQRQKSILQMLRTVWVGDGLKGFYRGIAPGVTGSLATGATYFGFIESTKKWIEESHPSLAGHWAHFIAGAVGDTLGSFIYVPCEVIKQRMQIQGTSSSWSSYISRNSVPVQPRGDMYGYYTGMFQAGCSIWKEQGPKGLYAGYWSTLARDVPFAGLMVVFYEGLKDLTDQGKKKFPQYGVNSSIEGLVLGGLAGGLSAYLTTPLDVVKTRLQVQGSTIKYASYKGWLDAVGQIWRKEGPQGFFRGSVPRVMWYLPASALTFMAVEFLRDNFREKSNNNNNVVSNLSIERKTSSTSVHEG”: the protein production result is “failed”.

In the case of “MATLNKALTRPAAIAGIPIVPFVIVSGAIVLLSVYLSYYLVLLLIPAWLEMKAKARTDIHYFGLLWLAFKTRGRFATNKYFGANAMLANRYDAVDVSEFIEKMKLNERVTLDKHIPYSSHVHPQVIRNRHGDLVSTWELGGTVFECEDEHHLTLMATHLNNVIRSYEGLPITFYLHRIREKYQDAFAASSGIPFSDDVTALYYQPIKEKPLWRHRLFFTLCYAPFSRLEKKAMKAQPSGKRTAALDGALKVMLEHRAALASALSRYTATPLGVYEENGRVYSSQLSFYHRLLTGQWQKVAVTRSPFYDILSTPDVFFTTDTAECQTVSGSRFFRSLEIKDYSPDTATGLLDALLYAESEYVMTQSFTCMARDEAQNHIRLAEKRLNSAADDAISQREELIVLRDLLQSGHVSCGKYHFSLLVSSDSADQVVKDVNALAQPFADLGIMTTLSTLSLPAAYLAQLPGVYTLRPRLVAVSSQNFADMASLHNFHPHKRNGNPWGEAITIMTSPGGGGYYLNLHDSQAGRDDFNEKTPGNTAIIGKTGSGKTMLMTVMQQLMQKYRNPATFSESAPHKRLSTVYFDKDRAAEMAIRQMGGRYFRLRTGVPTGFNPFALAPTKRNISFIKRLVRMLCRRNSKPLDPRDEERISTAVDTIMLDYPPEYRRYGITRLLEVLPEPPTKEARTNGLRIRLKQWAQGGEFGWVFDNETDTFDISDIDNVGIDGTEFLDDDDIRGPITFYLLYRVTGLLDGRRLVMFMDEFWKWLADVEFSRFSLNMLKVIRKLNGIFIPATQSPDEIVRHPIAPAIIEQCGTQIFLANPKASRADYVEKMKVPDSVYDIVRHLDPGERYMVVLKTPLRAGETRPFVSMAKMDLSGLGKITRMLSGSEDNLKLFDALYQEGMQPDDWKDAFLEIAL”, the protein production result is reported as “failed”.

As for “MATPAYMSITGTKQGLITAGAFTEDSVGNTYQEGHEDQVMVQGFNHEVIIPRDPQSGQPTGQRVHKPVVITKVFDKASPLLLAALTSGERLTKVEIQWYRTSAAGTQEHYYTTVLEDAIIVDIKDYMHNCQDPGNAHFTHLEDVHFTYRKITWTHEVSGTSGSDDWRSPVAG”, the protein production result is given as “not failed”.

Take “MATPKLEIGVIGLGKFGLQVSRTLVELGHSVVGIDSTEGRIRQAQDILSQVYQGNAADPAVLQQLRFQDLDCVIVSVGNSMETSLLVTLNLQEIGVRKIWVKAVSTEHKKVLTRLGVDHVILPEHDVATHLAHRLVNPGMLDLLPLGGGGQILLQELTVDKWAGRTLLDLRLANEHGVMVVAVKPAAFREYRFVPAAHEVLQQGDKLVVIGRHEDVLRLEP”: the protein production result is “failed”.

As for “MATPVVTKTAWKLQEIVAHASNVSSLVLGKASGRLLATGGDDCRVNLWSINKPNCIMSLTGHTSPVESVRLNTPEELIVAGSQSGSIRVWDLEAAKILRTLMGHKANICSLDFHPYGEFVASGSQDTNIKLWDIRRKGCVFRYRGHSQAVRCLRFSPDGKWLASAADDHTVKLWDLTAGKMMSEFPGHTGPVNVVEFHPNEYLLASGSSDRTIRFWDLEKFQVVSCIEGEPGPVRSVLFNPDGCCLYSGCQDSLRVYGWEPERCFDVVLVNWGKVADLAICNDQLIGVAFSQSNVSSYVVDLTRVTRTGTVTQDPVQASQPQTQQTPNPGVSLRRIYERPSTTCSKPQRVKHNSESERRSPSSEDDKDERESRAEIQNAEDYNEIFQPKNSISRTPPRRSEPFPAPPEDDIATAKEASKPSPAMDVQLPVPSQEVPARPSVMTSTPAPKGEPVIIPATRNEPIGLKASDFLPAVKVPQQAELVDEDAMSQIRKGHDTMCVVLTSRHKNLDTVRAVWTTGDIKTSVDSAVAINDLSVVVDLLNIVNQKASLWKLDLCTTVLPQIEKLLQSKYESYVQTGCTSLKLILQRFLPLITDILAAPPSVGVDISREERLHKCRLCFKQLKSISGLVKSRSGLSGRHGSAFRELHLLMASLD”, the protein production entry is recorded as “failed”.

For “MATRGSRSEKVKRIFQQFDGNHDGGLNREEMAALVVAVNPRVKFSDEQINAILDEVFRTYAEFIDPNKGLTYDGLLRTYDDGAGDVDRDFDALGLELNADETTIKGSEAASSSSITDERAVEAQKKQRTAAWAVSPNHGIVFDETWKLVDDLEILVKRLKSKQEKDGKLKADNNNNNVDAFSDAGWSRELGPSSEISEKRIYWEESSHDYGVFVKELGVLRSKADGARSREEAFDGHMAIGRVLYEHQLFKEALVSFKRACELQPTDVRPHFKAGNCLYVLGKCKESKDEFLLALEAAESGGNQWAYLLPQIYVNLGIALEGEGMVLSACEYYREAAILCPTHFRALKLLGSALFGVGEYRAAVKALEEAIYLKPDYADAHCDLASSLHSMGEDERAIEVFQRAIDLKPGHVDALYNLGGLYMDLGRFQRASEMYTRVLTVWPNHWRAQLNKAVSLLGAGETEEAKRALKEALKLTNRVELHDAISHLKHLQKKKGKNNGNGNGGEGPFIVVEPSKFKTVGEKTTLRPDLATALQIRAFQRVTRLGKCDVEAVRKEMRDNDVPVSYSGSGGPTKSIRKPNLEEILRRLLSSLKPDTFQGAIKAINEKILALLDDSGSGRVDMGMFYAVIAPLCGGHSDKRKRVAFDALLWRPVNEGSSQITKTDAVKYIKLLRAIYIPSHGMSEMLEVHGEEEAESSVTVTFNQFLAMFDDPDWGFGIMSTILKLEANDRNRHGNQVCSVCRYPVIGSRFKEVKARFSLCNQCYGEGKVPPSFKQEEYKFREYESEAEAMKAKCVCFSMQSHKKAIAT”, the protein production entry is given as “failed”.

For “MATRPKTIWESFLSPVVRFLMDEDKWRRYAQSIDWEKESDRFRRTDVIIPSYYTSQNFHGIEGGYLNSSAAVTYDPITEYVLPPNETLVRQALIDGVKVQPRRILDLGCGTGSTTLMLKQAFPQADVIGLDLSPYMLVRAEDKARTADLDISWRHGNAEKTSFPNASFDLVTTSLLFHETPVEVSQTILQECFRLLVAGGQVIILDGNQKSLRQLNWLNDIFEEPYIREYAADNLDARMGAAGFVGVQTEDLWLIHQVTSGIKPILATDTNQIKDRQYMPAIDNNNLEGLESPAFGIVALEHHHHHH”, the protein production entry was “failed”.

As for “MATVERAMMLKTMRKHGVTLALFAAGSTGLTAAINELTKSTIDQQAALQQKALFDQVLPADRYNNDLLKSCYLVSAPALGKGQHKVWIAKNNDRPIGAVMEATAPDGYSGAIQLLVAADFSGTVLGTRVTEHHETPGLGDKIELRLSDWITHFAGKVIHGQGDSHWAVKKDGGDFDQFTGATITPRAVVNAVKRAGLYAQTLPAQLPEFTACGE”, the protein production entry is “failed”.

Regarding “MATYNYPEFGAGLWHFANYIDRYAVDGYGPALSTIDQINAAKEVGELSYVDLPYPFTPGVTLSEVKDALKDAGLKAIGITPEIYLQKWSRGAFTNPDPAARAAAFELMHESAGIVRELGANYVKVWPGQDGWDYPFQVSHKNLWKLAVDGMRDLAGANPDVKFAIEYKPREPRVKMTWDSAARTLLGIEDIGLDNVGVLLDFGHALYGGESPADSAQLIIDRGRLFGMDVNDNLRGWDDDLVVGTVHMTEIFEFFYVLKINNWQGVWQLDQFPFRENHVEAAQLSIRFLKHIYRALDKLDIPALQAAQEAQNPLQAQRIVQDALLSSITVSE”, the protein production entry is on record as “not failed”.

These data come from a protein production outcome set (Wang et al. 2014).
